{"source": "patent US9682130B2", "about": "(priority 2015, dated 2017)", "key": {"[1]": {"system": "Human Adenovirus 5 (AD5 strain NYS #98-1836)", "assay": "Virus yield reduction assay, Adenovirus 5", "type": "cell-based", "experimental": "The concentration of test compound required to inhibit CPE by 50% or reduce red uptake into cells by 50% (EC50) was calculated by regression analysis. The toxicity of the compound without virus present was similarly calculated using the uninfected wells treated with test compounds compared with untreated cell controls. The concentration of compound that would cause 50% cytotoxic effects in the absence of virus (CC50) was estimated by linear regression analysis. The selectivity index (SI) is the CC50 divided by EC50.\nThe virus yield reduction assay was used to determine actual virus amounts in the presence and absence of the test compound; this is the confirmatory assay for antiviral activity. […] Replicate wells of each compound concentration or control were pooled and frozen at −80° C. Samples were thawed and diluted by 10-fold serial dilutions. A 100 μL aliquot of each dilution was then plated onto 4 replicate wells of 96-well plates seeded with the applicable cells for each virus strain. Plates were incubated as noted above until viral CPE reached its endpoint, then each well was scored microscopically for the presence of viral CPE. The virus titer was determined based on the endpoint using the Reed-Muench method. […]"}, "Adenovirus serotype Ad5": {"system": "Adenovirus serotype Ad5", "assay": "Ad5/NZW rabbit ocular replication model, plaque assay of ocular samples", "type": "in vivo", "settings": "for Ad5-positive ocular samples, percent, Day 1 / Ad5-positive ocular samples, percent, Day 3 / Ad5-positive ocular samples, percent, Day 4 / Ad5-positive ocular samples, percent, Day 5 / Ad5-positive ocular samples, percent, Day 7 / Ad5-positive ocular samples, percent, Day 11 / Ad5-positive ocular samples, percent, Day 14 / Ad5-positive ocular samples, percent, Total / Ad5-positive ocular samples/total eyes, Day 1 / Ad5-positive ocular samples/total eyes, Day 3 / Ad5-positive ocular samples/total eyes, Day 4 / Ad5-positive ocular samples/total eyes, Day 5 / Ad5-positive ocular samples/total eyes, Day 7 / Ad5-positive ocular samples/total eyes, Day 11 / Ad5-positive ocular samples/total eyes, Day 14 / Ad5-positive ocular samples/total eyes, Total: 8x daily 9 days", "experimental": "See, e.g., Romanowski, et al., The In Vitro and In Vivo Evaluation of ddC as a Topical Antiviral for Ocular Adenovirus Infections, Invest. Ophthalmol. Vis. Sci. 50: 5295-5299 (2009), which is hereby incorporated by reference in its entirety.\nTo conduct this in vivo assay, 25 NZW rabbit were anesthetized using the general anesthesia ketamine and xylazine and the topical anesthesia proparacaine. Each rabbit was then topically inoculated with 50 μL of Adenovirus serotype Ad5 (3×10^7 pfu/mL) in both eyes after corneal epithelial scarification (12 cross-hatched strokes of a 25 sterile needle). Eyes were closed and gently rubbed for 5 seconds to ensure contact of the virus on all ocular surfaces. […] All topical solutions (37 μL drops) were instilled with an electronic pipette (EDP; Rainin, Oakland, Calif.) set in the multi-dispense mode. Ocular swabbing to recover adenovirus from tear film and corneal and conjunctival surfaces, after topical anesthesia with proparacaine, was performed at least 1 hour after the final dose on days 0, 1, 3, 4, 5, 7, 9, 11, and 14 after inoculation. The ocular samples from each eye was placed individually into tubes containing 1 mL of medium and were frozen at −70° C. pending viral plaque assay.\nThe ocular samples were assayed for Ad5 titers by performing a plaque reduction assay. Samples were diluted 1:10 and these dilutions were inoculated onto duplicate wells of a 24 well multi-plate containing A549 monolayers. The virus was adsorbed for 3 hours at 37° C. in a 5% CO2-water vapor atmosphere without constant rocking. After adsorption, 1 mL of medium plus 0.5% methylcellulose was added to each well, and the plates were incubated at 37° C. in a 5% CO2-water vapor atmosphere. After 7 days, the cells were stained with 0.5% gentian violet, and the number of plaques counted using a dissecting microscope (25×). The viral titers were then calculated, and will be expressed as plaque-forming units per milliliter (PFU/mL). Data from the study were analyzed using analysis of variance (ANOVA) with Fisher's pair-wise comparisons and X^2 analyses using True Epistat and/or Minitab statistical software. Significance was established at the P≦0.05 confidence level."}}, "data": [{"molecule": "Ranpirnase (protein, UniProt P22069 1-104, looked up, amphibian ribonuclease originally isolated from oocytes and/or early embryos of Rana pipiens; pancreatic ribonuclease (RNase A) superfamily, about 12 kD) Protein P-30: QDWLTFQKKHITNTRDVDCDNIMSTNLFHCKDKNTFIYSRPEPVKAICKGIIASKNVLTTSEFYLSDCNVTSRPCKYKLKKSTNKFCVTCENQAPVHFVGVGSC", "values": [{"measurement": "Yield Reduction Assay EC50", "setting": "[1]", "value": 21.54, "unit": "µg/mL"}, {"measurement": "Ad5-positive ocular samples, percent, Day 1", "setting": "Adenovirus serotype Ad5; 0.25 μM Ranpirnase (group 1C)", "value": 100, "unit": "%"}, {"measurement": "Ad5-positive ocular samples, percent, Day 3", "setting": "Adenovirus serotype Ad5; 0.25 μM Ranpirnase (group 1C)", "value": 100, "unit": "%"}, {"measurement": "Ad5-positive ocular samples, percent, Day 4", "setting": "Adenovirus serotype Ad5; 0.25 μM Ranpirnase (group 1C)", "value": 100, "unit": "%"}, {"measurement": "Ad5-positive ocular samples, percent, Day 5", "setting": "Adenovirus serotype Ad5; 0.25 μM Ranpirnase (group 1C)", "value": 100, "unit": "%"}, {"measurement": "Ad5-positive ocular samples, percent, Day 7", "setting": "Adenovirus serotype Ad5; 0.25 μM Ranpirnase (group 1C)", "value": 88, "unit": "%"}, {"measurement": "Ad5-positive ocular samples, percent, Day 11", "setting": "Adenovirus serotype Ad5; 0.25 μM Ranpirnase (group 1C)", "value": 38, "unit": "%"}, {"measurement": "Ad5-positive ocular samples, percent, Day 14", "setting": "Adenovirus serotype Ad5; 0.25 μM Ranpirnase (group 1C)", "value": 0, "unit": "%"}, {"measurement": "Ad5-positive ocular samples, percent, Total", "setting": "Adenovirus serotype Ad5; 0.25 μM Ranpirnase (group 1C)", "value": 76.7, "unit": "%"}, {"measurement": "Ad5-positive ocular samples/total eyes, Day 1", "setting": "Adenovirus serotype Ad5; 0.25 μM Ranpirnase (group 1C)", "value": "10/10"}, {"measurement": "Ad5-positive ocular samples/total eyes, Day 3", "setting": "Adenovirus serotype Ad5; 0.25 μM Ranpirnase (group 1C)", "value": "10/10"}, {"measurement": "Ad5-positive ocular samples/total eyes, Day 4", "setting": "Adenovirus serotype Ad5; 0.25 μM Ranpirnase (group 1C)", "value": "8/8"}, {"measurement": "Ad5-positive ocular samples/total eyes, Day 5", "setting": "Adenovirus serotype Ad5; 0.25 μM Ranpirnase (group 1C)", "value": "8/8"}, {"measurement": "Ad5-positive ocular samples/total eyes, Day 7", "setting": "Adenovirus serotype Ad5; 0.25 μM Ranpirnase (group 1C)", "value": "7/8"}, {"measurement": "Ad5-positive ocular samples/total eyes, Day 11", "setting": "Adenovirus serotype Ad5; 0.25 μM Ranpirnase (group 1C)", "value": "3/8"}, {"measurement": "Ad5-positive ocular samples/total eyes, Day 14", "setting": "Adenovirus serotype Ad5; 0.25 μM Ranpirnase (group 1C)", "value": "0/8"}, {"measurement": "Ad5-positive ocular samples/total eyes, Total", "setting": "Adenovirus serotype Ad5; 0.25 μM Ranpirnase (group 1C)", "value": "46/60"}, {"measurement": "Ad5-positive ocular samples, percent, Day 1", "setting": "Adenovirus serotype Ad5; 2.5 μM Ranpirnase (group 1B)", "value": 100, "unit": "%"}, {"measurement": "Ad5-positive ocular samples, percent, Day 3", "setting": "Adenovirus serotype Ad5; 2.5 μM Ranpirnase (group 1B)", "value": 100, "unit": "%"}, {"measurement": "Ad5-positive ocular samples, percent, Day 4", "setting": "Adenovirus serotype Ad5; 2.5 μM Ranpirnase (group 1B)", "value": 100, "unit": "%"}, {"measurement": "Ad5-positive ocular samples, percent, Day 5", "setting": "Adenovirus serotype Ad5; 2.5 μM Ranpirnase (group 1B)", "value": 80, "unit": "%"}, {"measurement": "Ad5-positive ocular samples, percent, Day 7", "setting": "Adenovirus serotype Ad5; 2.5 μM Ranpirnase (group 1B)", "value": 70, "unit": "%"}, {"measurement": "Ad5-positive ocular samples, percent, Day 11", "setting": "Adenovirus serotype Ad5; 2.5 μM Ranpirnase (group 1B)", "value": 0, "unit": "%"}, {"measurement": "Ad5-positive ocular samples, percent, Day 14", "setting": "Adenovirus serotype Ad5; 2.5 μM Ranpirnase (group 1B)", "value": 0, "unit": "%"}, {"measurement": "Ad5-positive ocular samples, percent, Total", "setting": "Adenovirus serotype Ad5; 2.5 μM Ranpirnase (group 1B)", "value": 64.3, "unit": "%"}, {"measurement": "Ad5-positive ocular samples/total eyes, Day 1", "setting": "Adenovirus serotype Ad5; 2.5 μM Ranpirnase (group 1B)", "value": "10/10"}, {"measurement": "Ad5-positive ocular samples/total eyes, Day 3", "setting": "Adenovirus serotype Ad5; 2.5 μM Ranpirnase (group 1B)", "value": "10/10"}, {"measurement": "Ad5-positive ocular samples/total eyes, Day 4", "setting": "Adenovirus serotype Ad5; 2.5 μM Ranpirnase (group 1B)", "value": "10/10"}, {"measurement": "Ad5-positive ocular samples/total eyes, Day 5", "setting": "Adenovirus serotype Ad5; 2.5 μM Ranpirnase (group 1B)", "value": "8/10"}, {"measurement": "Ad5-positive ocular samples/total eyes, Day 7", "setting": "Adenovirus serotype Ad5; 2.5 μM Ranpirnase (group 1B)", "value": "7/10"}, {"measurement": "Ad5-positive ocular samples/total eyes, Day 11", "setting": "Adenovirus serotype Ad5; 2.5 μM Ranpirnase (group 1B)", "value": "0/10"}, {"measurement": "Ad5-positive ocular samples/total eyes, Day 14", "setting": "Adenovirus serotype Ad5; 2.5 μM Ranpirnase (group 1B)", "value": "0/10"}, {"measurement": "Ad5-positive ocular samples/total eyes, Total", "setting": "Adenovirus serotype Ad5; 2.5 μM Ranpirnase (group 1B)", "value": "45/70"}, {"measurement": "Ad5-positive ocular samples, percent, Day 1", "setting": "Adenovirus serotype Ad5; 25 μM Ranpirnase (group 1A)", "value": 100, "unit": "%"}, {"measurement": "Ad5-positive ocular samples, percent, Day 3", "setting": "Adenovirus serotype Ad5; 25 μM Ranpirnase (group 1A)", "value": 100, "unit": "%"}, {"measurement": "Ad5-positive ocular samples, percent, Day 4", "setting": "Adenovirus serotype Ad5; 25 μM Ranpirnase (group 1A)", "value": 100, "unit": "%"}, {"measurement": "Ad5-positive ocular samples, percent, Day 5", "setting": "Adenovirus serotype Ad5; 25 μM Ranpirnase (group 1A)", "value": 90, "unit": "%"}, {"measurement": "Ad5-positive ocular samples, percent, Day 7", "setting": "Adenovirus serotype Ad5; 25 μM Ranpirnase (group 1A)", "value": 30, "unit": "%"}, {"measurement": "Ad5-positive ocular samples, percent, Day 11", "setting": "Adenovirus serotype Ad5; 25 μM Ranpirnase (group 1A)", "value": 0, "unit": "%"}, {"measurement": "Ad5-positive ocular samples, percent, Day 14", "setting": "Adenovirus serotype Ad5; 25 μM Ranpirnase (group 1A)", "value": 0, "unit": "%"}, {"measurement": "Ad5-positive ocular samples, percent, Total", "setting": "Adenovirus serotype Ad5; 25 μM Ranpirnase (group 1A)", "value": 60, "unit": "%"}, {"measurement": "Ad5-positive ocular samples/total eyes, Day 1", "setting": "Adenovirus serotype Ad5; 25 μM Ranpirnase (group 1A)", "value": "10/10"}, {"measurement": "Ad5-positive ocular samples/total eyes, Day 3", "setting": "Adenovirus serotype Ad5; 25 μM Ranpirnase (group 1A)", "value": "10/10"}, {"measurement": "Ad5-positive ocular samples/total eyes, Day 4", "setting": "Adenovirus serotype Ad5; 25 μM Ranpirnase (group 1A)", "value": "10/10"}, {"measurement": "Ad5-positive ocular samples/total eyes, Day 5", "setting": "Adenovirus serotype Ad5; 25 μM Ranpirnase (group 1A)", "value": "9/10"}, {"measurement": "Ad5-positive ocular samples/total eyes, Day 7", "setting": "Adenovirus serotype Ad5; 25 μM Ranpirnase (group 1A)", "value": "3/10"}, {"measurement": "Ad5-positive ocular samples/total eyes, Day 11", "setting": "Adenovirus serotype Ad5; 25 μM Ranpirnase (group 1A)", "value": "0/10"}, {"measurement": "Ad5-positive ocular samples/total eyes, Day 14", "setting": "Adenovirus serotype Ad5; 25 μM Ranpirnase (group 1A)", "value": "0/10"}, {"measurement": "Ad5-positive ocular samples/total eyes, Total", "setting": "Adenovirus serotype Ad5; 25 μM Ranpirnase (group 1A)", "value": "42/70"}, {"measurement": "Antiviral efficacy compared to the Saline (negative) control", "setting": "Adenovirus serotype Ad5; 25, 2.5 and 0.25 μM Ranpirnase, Ad5/NZW rabbit ocular model", "value": "dose dependent antiviral efficacy"}]}]}
